Measured values published in patent EP4606823A1 (Bristar Immunotech Limited, dated 2025).

T1: mouse LILRB4 (mouse, UniProt Q64281 24-335)
T1 construct: whole, on cells; also called 293T-mouse LILRB4
T1 sequence (looked up): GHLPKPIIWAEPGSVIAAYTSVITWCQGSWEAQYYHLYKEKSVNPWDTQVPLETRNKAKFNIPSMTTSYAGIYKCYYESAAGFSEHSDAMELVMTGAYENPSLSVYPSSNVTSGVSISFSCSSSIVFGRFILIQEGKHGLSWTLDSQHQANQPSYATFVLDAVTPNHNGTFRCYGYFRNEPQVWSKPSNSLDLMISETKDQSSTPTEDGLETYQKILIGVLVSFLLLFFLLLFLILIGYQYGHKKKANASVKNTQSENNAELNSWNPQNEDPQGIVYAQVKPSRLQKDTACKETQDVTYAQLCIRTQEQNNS


What was measured:
stock region of LILRB4 = biological target: T2, stock region of LILRB4 (UniProt Q8NHJ6 219-259, limits assumed); assay: flow cytometry
T2 construct: domain: stock region

mouse LILRB4 = biological target: T1, mouse LILRB4; assay: flow cytometry on 293T-mouse LILRB4
LILRA2 = biological target: T3, LILRA2 (UniProt Q8N149 24-483, limits assumed); assay: flow cytometry on 293T cells expressing the protein
T3 construct: whole, on cells

LILRA3 = biological target: T4, LILRA3 (UniProt Q8N6C8 24-439, limits assumed); assay: as above
T4 construct: whole, on cells

LILRA4 = biological target: T5, LILRA4 (UniProt P59901 24-499, limits assumed); assay: as above
T5 construct: whole, on cells

LILRA5 = biological target: T6, LILRA5 (UniProt A6NI73 42-299, limits assumed); assay: as above
T6 construct: whole, on cells

LILRA6 = biological target: T7, LILRA6 (UniProt Q6PI73 24-481, limits assumed); assay: as above
T7 construct: whole, on cells

LILRB1 = biological target: T8, LILRB1 (UniProt Q8NHL6 24-650, limits assumed); assay: as above
T8 construct: whole, on cells

LILRB2 = biological target: T9, LILRB2 (UniProt Q8N423 22-597, limits assumed); assay: as above
T9 construct: whole, on cells

LILRB3 = biological target: T10, LILRB3 (UniProt O75022 24-631, limits assumed); assay: as above
T10 construct: whole, on cells

LILRB5 = biological target: T11, LILRB5 (UniProt O75023 24-590, limits assumed); assay: as above
T11 construct: whole, on cells

LILRA1 = biological target: T12, LILRA1 (UniProt O75019 17-489, limits assumed); assay: as above
T12 construct: whole, on cells

LILRB4 protein = biological target: T13, LILRB4 protein (UniProt Q8NHJ6 22-259); assay: SPR (Biacore 8K); VHH-Fc captured by anti-human IgG(Fc) on CM5 chip, LILRB4 protein as analyte 0.977-62.5 nM; 1:1 binding fit
T13 construct: also called Pro-LB

T7 sequence (Q6PI73 24-481 limits assumed): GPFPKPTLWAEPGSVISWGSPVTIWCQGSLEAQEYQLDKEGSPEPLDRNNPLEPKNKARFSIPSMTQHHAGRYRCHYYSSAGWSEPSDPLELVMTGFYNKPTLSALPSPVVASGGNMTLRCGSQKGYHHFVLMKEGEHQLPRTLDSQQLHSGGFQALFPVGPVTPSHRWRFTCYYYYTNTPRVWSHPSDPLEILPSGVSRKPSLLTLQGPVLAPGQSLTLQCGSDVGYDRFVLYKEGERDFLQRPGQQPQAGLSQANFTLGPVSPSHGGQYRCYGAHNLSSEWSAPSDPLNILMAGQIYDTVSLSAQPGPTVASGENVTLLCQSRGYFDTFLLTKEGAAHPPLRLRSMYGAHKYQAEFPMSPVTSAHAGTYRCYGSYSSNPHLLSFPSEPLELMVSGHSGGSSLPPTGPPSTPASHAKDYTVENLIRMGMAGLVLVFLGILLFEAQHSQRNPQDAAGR
T3 sequence (Q8N149 24-483 limits assumed): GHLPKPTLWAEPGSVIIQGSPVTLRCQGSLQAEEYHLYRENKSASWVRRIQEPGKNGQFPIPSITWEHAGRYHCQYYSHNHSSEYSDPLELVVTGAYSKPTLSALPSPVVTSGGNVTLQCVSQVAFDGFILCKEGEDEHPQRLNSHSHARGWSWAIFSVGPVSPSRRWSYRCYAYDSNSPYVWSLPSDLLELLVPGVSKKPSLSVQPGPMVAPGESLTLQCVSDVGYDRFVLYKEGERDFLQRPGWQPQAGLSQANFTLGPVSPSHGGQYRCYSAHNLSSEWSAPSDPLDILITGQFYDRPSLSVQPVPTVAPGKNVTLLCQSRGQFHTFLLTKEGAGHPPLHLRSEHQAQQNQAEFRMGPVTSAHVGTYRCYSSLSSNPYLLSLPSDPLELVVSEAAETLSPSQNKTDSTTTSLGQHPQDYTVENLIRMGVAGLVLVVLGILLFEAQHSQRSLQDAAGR
T5 sequence (P59901 24-499 limits assumed): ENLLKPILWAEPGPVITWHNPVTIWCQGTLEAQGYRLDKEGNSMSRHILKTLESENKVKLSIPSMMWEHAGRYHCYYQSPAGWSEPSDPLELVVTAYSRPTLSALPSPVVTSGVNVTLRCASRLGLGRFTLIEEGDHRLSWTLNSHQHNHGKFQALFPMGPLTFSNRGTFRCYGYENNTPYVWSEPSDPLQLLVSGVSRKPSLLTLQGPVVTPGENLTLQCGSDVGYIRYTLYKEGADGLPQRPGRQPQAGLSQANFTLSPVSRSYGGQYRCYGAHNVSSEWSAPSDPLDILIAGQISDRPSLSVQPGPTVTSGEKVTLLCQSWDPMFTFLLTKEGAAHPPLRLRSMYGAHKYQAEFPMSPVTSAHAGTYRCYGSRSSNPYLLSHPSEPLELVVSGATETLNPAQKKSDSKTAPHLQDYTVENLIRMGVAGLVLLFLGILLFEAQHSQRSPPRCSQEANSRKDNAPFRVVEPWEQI
T10 sequence (O75022 24-631 limits assumed): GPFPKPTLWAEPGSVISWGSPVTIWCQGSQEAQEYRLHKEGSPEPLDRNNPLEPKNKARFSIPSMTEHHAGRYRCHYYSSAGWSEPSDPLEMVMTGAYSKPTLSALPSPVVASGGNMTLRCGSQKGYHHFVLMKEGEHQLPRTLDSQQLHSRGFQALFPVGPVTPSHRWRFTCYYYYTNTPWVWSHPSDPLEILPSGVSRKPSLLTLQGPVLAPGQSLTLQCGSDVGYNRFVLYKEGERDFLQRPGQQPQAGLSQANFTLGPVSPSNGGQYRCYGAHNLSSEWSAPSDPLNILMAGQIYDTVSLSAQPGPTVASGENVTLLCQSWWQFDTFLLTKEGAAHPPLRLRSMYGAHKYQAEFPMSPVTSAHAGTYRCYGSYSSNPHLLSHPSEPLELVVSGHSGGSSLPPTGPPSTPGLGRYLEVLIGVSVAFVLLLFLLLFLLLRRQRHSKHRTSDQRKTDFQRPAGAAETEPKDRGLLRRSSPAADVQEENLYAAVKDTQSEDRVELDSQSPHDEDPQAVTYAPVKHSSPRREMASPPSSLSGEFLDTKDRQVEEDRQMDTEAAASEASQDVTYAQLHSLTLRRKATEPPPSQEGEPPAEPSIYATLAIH
T6 sequence (A6NI73 42-299 limits assumed): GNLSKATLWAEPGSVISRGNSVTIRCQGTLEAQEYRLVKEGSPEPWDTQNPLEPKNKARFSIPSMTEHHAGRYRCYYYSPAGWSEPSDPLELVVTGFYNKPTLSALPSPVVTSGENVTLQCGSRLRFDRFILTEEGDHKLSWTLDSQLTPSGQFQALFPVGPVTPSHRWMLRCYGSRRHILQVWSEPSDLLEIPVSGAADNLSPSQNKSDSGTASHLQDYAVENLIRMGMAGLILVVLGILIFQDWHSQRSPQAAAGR
T9 sequence (Q8N423 22-597 limits assumed): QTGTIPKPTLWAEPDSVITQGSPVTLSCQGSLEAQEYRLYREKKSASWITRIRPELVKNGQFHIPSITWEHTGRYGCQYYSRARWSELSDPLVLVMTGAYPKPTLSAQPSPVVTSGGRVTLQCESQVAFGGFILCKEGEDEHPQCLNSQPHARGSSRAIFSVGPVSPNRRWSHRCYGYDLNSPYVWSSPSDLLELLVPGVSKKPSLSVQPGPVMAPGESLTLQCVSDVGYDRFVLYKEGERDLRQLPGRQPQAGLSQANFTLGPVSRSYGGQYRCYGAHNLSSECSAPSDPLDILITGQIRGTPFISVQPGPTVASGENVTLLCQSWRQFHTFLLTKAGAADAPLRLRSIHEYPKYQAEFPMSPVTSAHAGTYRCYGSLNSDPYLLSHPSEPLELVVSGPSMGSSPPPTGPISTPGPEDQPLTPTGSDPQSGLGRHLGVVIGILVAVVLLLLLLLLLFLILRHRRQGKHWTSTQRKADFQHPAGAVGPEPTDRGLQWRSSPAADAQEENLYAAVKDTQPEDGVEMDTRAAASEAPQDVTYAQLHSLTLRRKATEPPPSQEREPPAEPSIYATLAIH
T11 sequence (O75023 24-590 limits assumed): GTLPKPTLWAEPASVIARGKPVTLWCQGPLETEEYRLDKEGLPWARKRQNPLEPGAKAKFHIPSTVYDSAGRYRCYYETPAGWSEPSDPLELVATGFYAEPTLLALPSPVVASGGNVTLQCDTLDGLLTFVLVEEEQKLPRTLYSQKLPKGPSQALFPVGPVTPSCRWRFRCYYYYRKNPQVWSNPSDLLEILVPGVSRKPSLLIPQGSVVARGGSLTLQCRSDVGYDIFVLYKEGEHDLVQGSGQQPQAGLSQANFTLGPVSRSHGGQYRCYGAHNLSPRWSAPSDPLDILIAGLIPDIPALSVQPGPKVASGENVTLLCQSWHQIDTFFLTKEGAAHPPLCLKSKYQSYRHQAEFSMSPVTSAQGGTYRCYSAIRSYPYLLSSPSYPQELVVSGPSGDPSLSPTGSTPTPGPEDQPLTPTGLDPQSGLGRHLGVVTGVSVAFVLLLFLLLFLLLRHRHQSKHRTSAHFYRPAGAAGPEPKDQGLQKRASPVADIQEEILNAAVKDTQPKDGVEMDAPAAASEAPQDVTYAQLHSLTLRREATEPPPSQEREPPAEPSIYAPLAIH
T2 sequence (Q8NHJ6 219-259 limits assumed): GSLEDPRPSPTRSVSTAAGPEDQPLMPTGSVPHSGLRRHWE
T4 sequence (Q8N6C8 24-439 limits assumed): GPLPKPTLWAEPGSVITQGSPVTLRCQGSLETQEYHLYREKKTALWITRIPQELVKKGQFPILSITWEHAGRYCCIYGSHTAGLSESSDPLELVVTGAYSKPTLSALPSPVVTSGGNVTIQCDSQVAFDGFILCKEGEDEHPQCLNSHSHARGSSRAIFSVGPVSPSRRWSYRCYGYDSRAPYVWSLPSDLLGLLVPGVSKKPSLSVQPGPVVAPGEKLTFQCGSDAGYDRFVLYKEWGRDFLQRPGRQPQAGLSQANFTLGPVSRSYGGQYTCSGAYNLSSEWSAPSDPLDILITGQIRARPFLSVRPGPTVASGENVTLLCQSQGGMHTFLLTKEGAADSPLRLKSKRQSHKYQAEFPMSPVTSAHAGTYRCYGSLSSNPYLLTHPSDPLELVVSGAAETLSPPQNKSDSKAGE
T8 sequence (Q8NHL6 24-650 limits assumed): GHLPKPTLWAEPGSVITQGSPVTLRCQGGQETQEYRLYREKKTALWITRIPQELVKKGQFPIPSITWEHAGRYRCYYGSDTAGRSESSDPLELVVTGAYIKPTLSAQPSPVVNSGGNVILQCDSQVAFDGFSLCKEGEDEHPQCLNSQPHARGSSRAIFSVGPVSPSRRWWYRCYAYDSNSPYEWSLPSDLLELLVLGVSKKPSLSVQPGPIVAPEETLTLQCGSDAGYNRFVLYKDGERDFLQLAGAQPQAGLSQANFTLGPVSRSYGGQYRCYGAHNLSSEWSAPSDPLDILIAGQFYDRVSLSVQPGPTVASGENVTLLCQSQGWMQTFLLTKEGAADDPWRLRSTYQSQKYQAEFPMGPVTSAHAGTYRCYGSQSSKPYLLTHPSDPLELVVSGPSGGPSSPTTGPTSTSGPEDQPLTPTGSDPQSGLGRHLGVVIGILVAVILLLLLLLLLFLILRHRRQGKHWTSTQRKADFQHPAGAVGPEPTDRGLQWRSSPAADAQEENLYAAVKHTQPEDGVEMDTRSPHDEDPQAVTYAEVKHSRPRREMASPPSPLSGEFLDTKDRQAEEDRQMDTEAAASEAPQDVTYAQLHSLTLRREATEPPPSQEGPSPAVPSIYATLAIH
T12 sequence (O75019 17-489 limits assumed): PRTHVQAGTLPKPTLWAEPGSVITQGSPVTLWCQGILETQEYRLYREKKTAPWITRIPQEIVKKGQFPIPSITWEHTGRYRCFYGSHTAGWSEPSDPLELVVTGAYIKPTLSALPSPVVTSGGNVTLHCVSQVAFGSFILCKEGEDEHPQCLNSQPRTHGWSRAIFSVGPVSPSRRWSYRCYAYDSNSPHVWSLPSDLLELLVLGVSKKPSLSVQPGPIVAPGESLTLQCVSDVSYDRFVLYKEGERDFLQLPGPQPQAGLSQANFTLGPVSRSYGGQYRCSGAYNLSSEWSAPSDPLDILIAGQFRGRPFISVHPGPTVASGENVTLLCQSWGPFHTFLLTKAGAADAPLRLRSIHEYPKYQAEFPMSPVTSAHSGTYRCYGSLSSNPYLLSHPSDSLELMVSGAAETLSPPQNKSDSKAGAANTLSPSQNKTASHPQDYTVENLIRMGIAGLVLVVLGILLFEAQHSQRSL

binding result (stock region of LILRB4) | binding result (mouse LILRB4) | binding result (LILRA2) | binding result (LILRA3) | binding result (LILRA4) | binding result (LILRA5) | binding result (LILRA6) | binding result (LILRB1) | binding result (LILRB2) | binding result (LILRB3) | binding result (LILRB5) | binding result (LILRA1) | Kd (LILRB4 protein) [nM] | koff (LILRB4 protein) [s⁻¹] | kon (LILRB4 protein) [M⁻¹ s⁻¹] | Binder
no binding | no binding | no binding | no binding | no binding | no binding | no binding | no binding | no binding | no binding | no binding | no binding | 0.493 | 0.000301 | 612000 | NLB14 VHH antibody fused with human IgG1 (Fc) (Fc fusion, also called NLB(G4S)IGG1FC; NLB14 nanobody; not shown: human IgG1 Fc) DVQLQESGGGLVQPGGSLRLSCAASGFTLDYYAIGWFRQAPGKEREGVSCVSSSDGSTYYADSVKGRFTISRDNAKNTVYLQMNSLKPEDTAVYYCAADQYSSTWTIRLTRCHFGSWGQGTQVTVSSGGGGS
no binding | no binding | no binding | no binding | no binding | no binding | no binding | no binding | no binding | no binding | no binding | no binding | 1.32 | 0.000551 | 418000 | NLB4 VHH antibody fused with human IgG1 (Fc) (Fc fusion, also called NLB(G4S)IGG1FC; NLB4 nanobody; not shown: human IgG1 Fc) DVQLQESGGGLVQSGGSLRLSCLASGTSGNVKAVGWYGWYRQAPGKQREVVATITRGGIPNYADSVQGRFTISRDNAQDTVFLQMNSLKPADTAVYYCYARILTDDWHDLWGQGTQVTVSSGGGGS
